Test results: FireProtDB (doi:10.1021/bi00252a018)

B1: Subtilisin inhibitor, P01006 (parent)
chain: MRNTGAGPSPSVSRPPPSAAPLSGAALAAPGDAPSALYAPSALVLTVGKGVSATTAAPERAVTLTCAPGPSGTHPAAGSACADLAAVGGDLNALTRGEDVMCPMVYDPVLLTVDGVWQGKRVSYERVFSNECEMNAHGSSVFAF

Variants of: B1
Conditions: Streptomyces albogriseolus; pH 2.3; Thermal; DSC; glycine 25 mM; reversible: yes (70-85%); structure 3SSI; whole UniProt chain shown

Variant | Tm [°C]
MRNTGAGPSPSVSRPPPSAAPLSGAALAAPGDAPSALYAPSALVLTVGKGVSATTAAPERAVTLTCAPGPSGTHPAAGSACADLAAVGGDLNALTRGEDVMCPMVYDPVLLTVCGVWQGKRVSYERVFSNECEMNAHGSSVFAF | 48

Same assay, conditions: Streptomyces albogriseolus; pH 2.4; Thermal; DSC; glycine 25 mM; reversible: yes (70-85%); structure 3SSI; whole UniProt chain shown

Variant | Tm [°C]
MRNTGAGPSPSVSRPPPSAAPLSGAALAAPGDAPSALYAPSALVLTVGKGVSATTAAPERAVTLTCAPGPSGTHPAAGSACADLAAVGGDLNALTRGEDVMCPMVYDPVLLTVCGVWQGKRVSYERVFSNECEMNAHGSSVFAF | 50

Same assay, conditions: Streptomyces albogriseolus; pH 2.5; Thermal; DSC; glycine 25 mM; reversible: yes (70-85%); structure 3SSI; whole UniProt chain shown

Variant | Tm [°C]
MRNTGAGPSPSVSRPPPSAAPLSGAALAAPGDAPSALYAPSALVLTVGKGVSATTAAPERAVTLTCAPGPSGTHPAAGSACADLAAVGGDLNALTRGEDVMCPMVYDPVLLTVCGVWQGKRVSYERVFSNECEMNAHGSSVFAF | 52.5

Same assay, conditions: Streptomyces albogriseolus; pH 2.56; Thermal; DSC; glycine 25 mM; reversible: yes (70-85%); structure 3SSI; whole UniProt chain shown

Variant | Tm [°C]
MRNTGAGPSPSVSRPPPSAAPLSGAALAAPGDAPSALYAPSALVLTVGKGVSATTAAPERAVTLTCAPGPSGTHPAAGSACADLAAVGGDLNALTRGEDVMCPMVYDPVLLTVCGVWQGKRVSYERVFSNECEMNAHGSSVFAF | 53.2

Same assay, conditions: Streptomyces albogriseolus; pH 2.59; Thermal; DSC; glycine 25 mM; reversible: yes (70-85%); structure 3SSI; whole UniProt chain shown

Variant | Tm [°C]
MRNTGAGPSPSVSRPPPSAAPLSGAALAAPGDAPSALYAPSALVLTVGKGVSATTAAPERAVTLTCAPGPSGTHPAAGSACADLAAVGGDLNALTRGEDVMCPMVYDPVLLTVCGVWQGKRVSYERVFSNECEMNAHGSSVFAF | 54.2

Same assay, conditions: Streptomyces albogriseolus; pH 2.68; Thermal; DSC; glycine 25 mM; reversible: yes (70-85%); structure 3SSI; whole UniProt chain shown

Variant | Tm [°C]
MRNTGAGPSPSVSRPPPSAAPLSGAALAAPGDAPSALYAPSALVLTVGKGVSATTAAPERAVTLTCAPGPSGTHPAAGSACADLAAVGGDLNALTRGEDVMCPMVYDPVLLTVCGVWQGKRVSYERVFSNECEMNAHGSSVFAF | 56.2

Same assay, conditions: Streptomyces albogriseolus; pH 2.8; Thermal; DSC; glycine 25 mM; reversible: yes (70-85%); structure 3SSI; whole UniProt chain shown

Variant | Tm [°C]
MRNTGAGPSPSVSRPPPSAAPLSGAALAAPGDAPSALYAPSALVLTVGKGVSATTAAPERAVTLTCAPGPSGTHPAAGSACADLAAVGGDLNALTRGEDVMCPMVYDPVLLTVCGVWQGKRVSYERVFSNECEMNAHGSSVFAF | 58.8

Same assay, conditions: Streptomyces albogriseolus; pH 2.88; Thermal; DSC; glycine 25 mM; reversible: yes (70-85%); structure 3SSI; whole UniProt chain shown

Variant | Tm [°C]
MRNTGAGPSPSVSRPPPSAAPLSGAALAAPGDAPSALYAPSALVLTVGKGVSATTAAPERAVTLTCAPGPSGTHPAAGSACADLAAVGGDLNALTRGEDVMCPMVYDPVLLTVCGVWQGKRVSYERVFSNECEMNAHGSSVFAF | 59.9

Same assay, conditions: Streptomyces albogriseolus; pH 2.89; Thermal; DSC; glycine 25 mM; reversible: yes (70-85%); structure 3SSI; whole UniProt chain shown

Variant | Tm [°C]
MRNTGAGPSPSVSRPPPSAAPLSGAALAAPGDAPSALYAPSALVLTVGKGVSATTAAPERAVTLTCAPGPSGTHPAAGSACADLAAVGGDLNALTRGEDVMCPMVYDPVLLTVCGVWQGKRVSYERVFSNECEMNAHGSSVFAF | 60.5

Same assay, conditions: Streptomyces albogriseolus; pH 2.94; Thermal; DSC; glycine 25 mM; reversible: yes (70-85%); structure 3SSI; whole UniProt chain shown

Variant | Tm [°C] | change of melting temperature, mutant - wild type (higher = more stable) [°C]
MRNTGAGPSPSVSRPPPSAAPLSGAALAAPGDAPSALYAPSALVLTVGKGVSATTAAPERAVTLTCAPGPSGTHPAAGSACADLAAVGGDLNALTRGEDVMCPMVYDPVLLTVCGVWQGKRVSYERVFSNECEMNAHGSSVFAF | 61.2 | 17.2

Same assay, conditions: Streptomyces albogriseolus; pH 3.04; Thermal; DSC; glycine 25 mM; reversible: yes (70-85%); structure 3SSI; whole UniProt chain shown

Variant | Tm [°C] | change of melting temperature, mutant - wild type (higher = more stable) [°C]
MRNTGAGPSPSVSRPPPSAAPLSGAALAAPGDAPSALYAPSALVLTVGKGVSATTAAPERAVTLTCAPGPSGTHPAAGSACADLAAVGGDLNALTRGEDVMCPMVYDPVLLTVCGVWQGKRVSYERVFSNECEMNAHGSSVFAF | 63.2 | 15.6

Same assay, conditions: Streptomyces albogriseolus; pH 3.07; Thermal; DSC; glycine 25 mM; reversible: yes (70-85%); structure 3SSI; whole UniProt chain shown

Variant | Tm [°C] | change of melting temperature, mutant - wild type (higher = more stable) [°C]
MRNTGAGPSPSVSRPPPSAAPLSGAALAAPGDAPSALYAPSALVLTVGKGVSATTAAPERAVTLTCAPGPSGTHPAAGSACADLAAVGGDLNALTRGEDVMCPMVYDPVLLTVCGVWQGKRVSYERVFSNECEMNAHGSSVFAF | 64.5 | 15.7

Same assay, conditions: Streptomyces albogriseolus; pH 3.16; Thermal; DSC; glycine 25 mM; reversible: yes (70-85%); structure 3SSI; whole UniProt chain shown

Variant | Tm [°C] | change of melting temperature, mutant - wild type (higher = more stable) [°C]
MRNTGAGPSPSVSRPPPSAAPLSGAALAAPGDAPSALYAPSALVLTVGKGVSATTAAPERAVTLTCAPGPSGTHPAAGSACADLAAVGGDLNALTRGEDVMCPMVYDPVLLTVCGVWQGKRVSYERVFSNECEMNAHGSSVFAF | 66.5 | 14.3

Same assay, conditions: Streptomyces albogriseolus; pH 3.25; Thermal; DSC; glycine 25 mM; reversible: yes (70-85%); structure 3SSI; whole UniProt chain shown

Variant | Tm [°C] | change of melting temperature, mutant - wild type (higher = more stable) [°C]
MRNTGAGPSPSVSRPPPSAAPLSGAALAAPGDAPSALYAPSALVLTVGKGVSATTAAPERAVTLTCAPGPSGTHPAAGSACADLAAVGGDLNALTRGEDVMCPMVYDPVLLTVCGVWQGKRVSYERVFSNECEMNAHGSSVFAF | 68.8 | 13.1

Same assay, conditions: Streptomyces albogriseolus; pH 7; Thermal; DSC; phosphate 25 mM; reversible: yes (70-85%); structure 3SSI; whole UniProt chain shown

Variant | Tm [°C] | change of melting temperature, mutant - wild type (higher = more stable) [°C]
MRNTGAGPSPSVSRPPPSAAPLSGAALAAPGDAPSALYAPSALVLTVGKGVSATTAAPERAVTLTCAPGPSGTHPAAGSACADLAAVGGDLNALTRGEDVMCPMVYDPVLLTVCGVWQGKRVSYERVFSNECEMNAHGSSVFAF | 95.3 | 13.3

Same assay, conditions: Streptomyces albogriseolus; pH 9.5; Thermal; DSC; glycine 25 mM; reversible: yes (70-85%); structure 3SSI; whole UniProt chain shown

Variant | Tm [°C] | change of melting temperature, mutant - wild type (higher = more stable) [°C]
MRNTGAGPSPSVSRPPPSAAPLSGAALAAPGDAPSALYAPSALVLTVGKGVSATTAAPERAVTLTCAPGPSGTHPAAGSACADLAAVGGDLNALTRGEDVMCPMVYDPVLLTVCGVWQGKRVSYERVFSNECEMNAHGSSVFAF | 95 | 14.3

Same assay, conditions: Streptomyces albogriseolus; pH 9.75; Thermal; DSC; glycine 25 mM; reversible: yes (70-85%); structure 3SSI; whole UniProt chain shown

Variant | Tm [°C] | change of melting temperature, mutant - wild type (higher = more stable) [°C]
MRNTGAGPSPSVSRPPPSAAPLSGAALAAPGDAPSALYAPSALVLTVGKGVSATTAAPERAVTLTCAPGPSGTHPAAGSACADLAAVGGDLNALTRGEDVMCPMVYDPVLLTVCGVWQGKRVSYERVFSNECEMNAHGSSVFAF | 94.8 | 14.6
